Reference: publication doi:10.1101/340026
Read-outs that look alike come from different tables or passages of the source.

Assays:
[1] = target: soluble porcine αβ-tubulin (porcine) (UniProt P02550); experiment: ITC
[2] = target: soluble porcine αβ-tubulin (porcine) (UniProt P02550); experiment: SEC + SEC-MALS
[3] = target: αβ-tubulin:DRP complex (1:1 molar ratio) (porcine) (UniProt P02550); experiment: ITC
[4] = target: αβ-tubulin:DRP complex (1:1 molar ratio) (porcine) (UniProt P02550); experiment: ITC; remark: listed apart in the source
[5] = target: soluble porcine αβ-tubulin (porcine) (UniProt P02550); experiment: SEC + SEC-MALS; remark: listed apart in the source

Molecule | Kd [1] [nM] | stoichiometry N [2] | Kd [3] [nM] | Kd [4] [nM] | stoichiometry N [5]
DRP with the N-terminal ankyrin repeat removed (DRPΔN) (designed binder) | 461 | – | – | – | –
designer ankyrin repeat protein, Darpin-D1 (DRP) (designed binder) | 149 | 1 | – | – | –
isolated TOG1 (residues 1-270) (domain or fragment) MSQDQEEDYSKLPLESRIVHKVWKVRLSAYEECSKSFSLSADGSDNCFELWNNQSELWKSVLTDSNVAAQEAGTAAFVAYCRFSDPSHLLKAREISVLSISEKCLTSPRAGTRENALEALMLLVEADSAAPVIESIIPSLSARSPKVIASNVAAIASLVEQFGAKVIPSKMIIPHISNLFGHADKNVRKEASRLTVNIYRWTGDPLKDLLFKDLRPVQTKELESLFAELPTEPPKQTRFLKSQQPTSEPNVETQVEEQPALENEESEPEP | – | – | 70 | 1500 | –
dimeric S. pombe Alp14 TOG array (residues 1-690) (domain or fragment) MSQDQEEDYSKLPLESRIVHKVWKVRLSAYEECSKSFSLSADGSDNCFELWNNQSELWKSVLTDSNVAAQEAGTAAFVAYCRFSDPSHLLKAREISVLSISEKCLTSPRAGTRENALEALMLLVEADSAAPVIESIIPSLSARSPKVIASNVAAIASLVEQFGAKVIPSKMIIPHISNLFGHADKNVRKEASRLTVNIYRWTGDPLKDLLFKDLRPVQTKELESLFAELPTEPPKQTRFLKSQQPTSEPNVETQVEEQPALENEESEPEPSDDQFDLVEEVDVLPNVDPNLETLMASSKWKDRKEALDKLLPVLSQPKIKDNDFFNLVAILTKSVSKDANIMVVINAAHCIQAMAKGLRSNFSKYASTSINALLERSKEKKANVIESLSSAMDAVLATSSLDDLAELIASFAGNKNPQIKSSCFSLFSRSFSNMTSLPSKFTVDTCAKACVPGVSDTFEPVRSAAAEALGVLMKLVGERAINQYLSPLDDIRKSKIRSFYETATVKAKAPTKKSKVKPSKQEESKVVVPSNAKAVKKSVVPSSPVVPSPRKATNKSLSMDVSKGNAFENGPLLPRPTTRPVSRGLSRGTSSSLQQKVKASTPLNSGALNETVQNLKNMELDDPAPQPAKHSRVDRYEHPKVLEDNDSTISSLESLKRENEELREQLKVEHEENISMQKQLSELKGELNTL | – | 4 | – | – | 4
monomeric S. pombe Alp14 TOG1-TOG2 array (residues 1-510) (domain or fragment) MSQDQEEDYSKLPLESRIVHKVWKVRLSAYEECSKSFSLSADGSDNCFELWNNQSELWKSVLTDSNVAAQEAGTAAFVAYCRFSDPSHLLKAREISVLSISEKCLTSPRAGTRENALEALMLLVEADSAAPVIESIIPSLSARSPKVIASNVAAIASLVEQFGAKVIPSKMIIPHISNLFGHADKNVRKEASRLTVNIYRWTGDPLKDLLFKDLRPVQTKELESLFAELPTEPPKQTRFLKSQQPTSEPNVETQVEEQPALENEESEPEPSDDQFDLVEEVDVLPNVDPNLETLMASSKWKDRKEALDKLLPVLSQPKIKDNDFFNLVAILTKSVSKDANIMVVINAAHCIQAMAKGLRSNFSKYASTSINALLERSKEKKANVIESLSSAMDAVLATSSLDDLAELIASFAGNKNPQIKSSCFSLFSRSFSNMTSLPSKFTVDTCAKACVPGVSDTFEPVRSAAAEALGVLMKLVGERAINQYLSPLDDIRKSKIRSFYETATVKAKAP | – | 2 | – | – | 2
isolated TOG2 (residues 320-510) (domain or fragment) KDNDFFNLVAILTKSVSKDANIMVVINAAHCIQAMAKGLRSNFSKYASTSINALLERSKEKKANVIESLSSAMDAVLATSSLDDLAELIASFAGNKNPQIKSSCFSLFSRSFSNMTSLPSKFTVDTCAKACVPGVSDTFEPVRSAAAEALGVLMKLVGERAINQYLSPLDDIRKSKIRSFYETATVKAKAP | – | – | 173 | 3250 | –
